Experimental data taken from publication PMC4446439.

system: LSD1Δ1 (KDM1);CoRESTΔ1 (human;human); assay: HI-FI fluorescence quenching; settings: 20 mM Tris-HCl pH 7.6, 50 mM NaCl, 5 mM DTT, 5% glycerol, 0.01% NP40, 0.01% CHAPS, 100 ug/ml BSA, 2 mM EDTA, room temperature, 15 min

Substance | Kd
165 bp nucleosome 10N10, H3 K27C | 0.205 µM
147 bp nucleosome 1N1, H3 A21C | 0.081 µM
177L nucleosome 31N1, H3 K27C | 0.769 µM
161L nucleosome 15N1, H3 K27C | 0.406 µM
163 bp nucleosome 9N9, H3 K27C | 0.237 µM
181 bp nucleosome 18N18, H3 A21C | 0.0038 µM
181 bp nucleosome 18N18, H3 K27C | 0.1 µM
207 bp nucleosome 31N31, H3 A21C | 0.003 µM
151L nucleosome 5N1, H3 K27C | 0.718 µM
151 bp nucleosome 3N3, H3 K27C | 0.716 µM
185 bp nucleosome 20N20, H3 K27C | 0.135 µM
161 bp nucleosome 8N8, H3 K27C | 0.232 µM
155 bp nucleosome 5N5, H3 K27C | 0.419 µM
147 bp nucleosome 1N1, H3 K27C | 1.64 µM
157 bp nucleosome 6N6, H3 A21C | 0.0176 µM
207 bp nucleosome 31N31, H3 K27C | 0.263 µM
169 bp nucleosome 12N12, H3 K27C | 0.282 µM
157 bp nucleosome 6N6, H3 K27C | 0.47 µM
159 bp nucleosome 7N7, H3 K27C | 0.236 µM
177 bp nucleosome 16N16, H3 K27C | 0.214 µM
